# Where no end group is shown, it is not given here.
# B1: Phage-2282 (peptide)
# peptide: AVKLCTPMWMCMGF
# B2: Phage-2281 (peptide)
# peptide: MPKWCIPTWMCEST
# B3: Phage-2280 (peptide)
# peptide: FAILCKPMWMCEHI
# B4: Phage-2268 (peptide)
# peptide: AENWCRPSWMCEGF
# B5: Phage-2278 (peptide)
# peptide: IEKWCIPQWMCSAA
# B6: Phage-2279 (peptide)
# peptide: IPRMCTPAWMCEWS
# B7: Phage-2275 (peptide)
# peptide: GEKWCIPSWMCEIT
# B8: Phage-2270 (peptide)
# peptide: VVKWCSPPWMCEYF
# B9: Phage-2277 (peptide)
# peptide: IIKWCKPLWMCESI
# B10: Phage-2272 (peptide)
# peptide: WDMRCTPIWMCEGF
# B11: Phage-2274 (peptide)
# peptide: YTNWCIPSWMCEGF
# B12: Phage-2271 (peptide)
# peptide: HQNWCIPAWMCHGM
# B13: Phage-2276 (peptide)
# peptide: LEKWCTPPWMCMGF
# B14: Phage-2269 (peptide)
# peptide: FAKWCTPQWMCSAM
# B15: Phage-2273 (peptide)
# peptide: GINWCIPPWMCQSE
# B16: Phage-2263 (peptide)
# peptide: YSHLCIPSWMCSWT
# B17: Phage-2266 (peptide)
# peptide: EMHWCIPAWMCPDG
# B18: Phage-2255 (peptide)
# peptide: VELLCKPPWMCSGL
# B19: Phage-2265 (peptide)
# peptide: GDRWCIPEWMCGVI
# B20: Phage-2257 (peptide)
# peptide: MEMWCRPAWMCAHS
# modifications: cysteine pairing not given here; also: displayed on phage, fused to pIII
# B21: Phage-2254 (peptide)
# peptide: PAKWCIPMWMCQVD
# B22: Phage-2260 (peptide)
# peptide: VDRWCIPEWMCNEL
# B23: Phage-2267 (peptide)
# peptide: ITKLCTPPWMCTMV
# B24: Phage-2259 (peptide)
# peptide: DMRWCIPAWMCEDR
# B25: Phage-2258 (peptide)
# peptide: MMKWCTPEWMCAMV
# modifications: cysteine pairing not given here; also: displayed on phage, fused to pIII
# B26: Phage-2262 (peptide)
# peptide: PNIWCTPLWMCEGL
# B27: Phage-2256 (peptide)
# peptide: PVNWCKPPWMCEMW
# B28: Phage-2253 (peptide)
# peptide: NERWCIPSWMCQEA
# B29: Phage-2261 (peptide)
# peptide: TEKWCIPAWMCQVS
# B30: Phage-2264 (peptide)
# peptide: ALKWCIPDWMCSQP
# B31: Phage-2187 (peptide)
# peptide: EIKWCTPAWMCEGF
# notes: tested as crude clonal phage supernatant
# B32: Phage-2186 (peptide)
# peptide: EFKWCIPAWMCTAA
# notes: as for B31
# B33: Phage-2184 (peptide)
# peptide: TEKWCIPEWMCAHQ
# modifications: cysteine pairing not given here; also: displayed on bacteriophage as fusion to pIII
# notes: as for B31
# B34: Phage-2188 (peptide)
# peptide: LSHWCSPQWMCSGF
# notes: as for B31
# B35: Phage-2190 (peptide)
# peptide: EHHWCIPKWMCNEV
# notes: as for B31
# B36: Phage-2191 (peptide)
# peptide: VDNWCVPRWMCDGF
# notes: as for B31
# B37: Phage-2185 (peptide)
# peptide: WSKSCTPAWMCEGF
# notes: as for B31
# B38: Phage-2189 (peptide)
# peptide: WYKWCTPAWMCEFT
# notes: as for B31
# B39: Phage-2283 (peptide)
# peptide: GGKWCKPSWMCFGM
# notes: as for B31
# B40: Phage-2284 (peptide)
# peptide: MINWCTPAWMCTGF
# notes: as for B31
# B41: Phage-2286 (peptide)
# peptide: AEKWCIPPWMCVND
# notes: as for B31
# B42: Phage-2285 (peptide)
# peptide: EPKWCIPQWMCERF
# notes: as for B31
# B43: Phage-2289 (peptide)
# peptide: ELNWCTPPWMCNPM
# notes: as for B31
# B44: Phage-2287 (peptide)
# peptide: VEKWCTPRWMCEGF
# notes: as for B31
# B45: Phage-2288 (peptide)
# peptide: HVKWCTPAWMCVSN
# notes: as for B31
# Molecular target: T1, Anti-PSMA Fab (SEQ ID NOs: 19, 20)
# T1 construct: Biotinylated and captured on neutravidin coated plates in the phage ELISA; also called 006 PSMA Fab
# Assay: phage binding ELISA; Fab-coated wells pre-incubated with PSMA antigen as competitor
# Method: (§1) Clonal phage were harvested as crude supernatants and screened via standard ELISAs. […] Prior to the addition of clonal phage. wells were incubated with blocking buffer and PSMA antigen or blocking buffer alone. Without washing or aspirating, clonal phage supernatants were then added to the wells and incubated for a short time. Wells were then washed followed by detection of bound phage using a horse radish conjugated anti-M13 antibody.
row,Binder,Anti-PSMA Fab signal in the presence of PSMA
1,B1,0.0984
2,B2,0.054
3,B3,0.0895
4,B4,0.0717
5,B5,0.0739
6,B6,0.0738
7,B7,0.0796
8,B8,0.0886
9,B9,0.104
10,B10,0.0882
11,B11,0.0789
12,B12,0.0592
13,B13,0.0948
14,B14,0.225
15,B15,0.119

# Molecular target: T2, Anti-PSMA Fab (SEQ ID NOs: 19, 20)
# T2 construct: also called 006 PSMA Fab
# Assay: phage binding ELISA; PSMA Fab on plate pre-incubated with PSMA antigen as competitor, anti-M13 HRP detection;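 note: crude clonal phage supernatants added without washing to wells preincubated with PSMA in blocking buffer, compared with wells receiving blocking buffer only, then bound phage detected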
# Method: as §1
row,Binder,Anti-PSMA Fab signal in the presence of PSMA
1,B16,0.111
2,B17,0.0572
3,B18,0.0931
4,B19,0.0664
5,B20,0.0767
6,B21,0.0779
7,B22,0.084
8,B23,0.0558
9,B24,0.0623
10,B25,0.0753
11,B26,0.0772
12,B27,0.087
13,B28,0.0574
14,B29,0.0738
15,B30,0.0749

# Molecular target: T3, Anti-PSMA Fab (SEQ ID NOs: 19, 20)
# T3 construct: Biotinylated and captured on neutravidin coated plates in the phage ELISA; also called 006 PSMA Fab
# Assay: phage binding ELISA; biotinylated PSMA Fab on neutravidin plate, clonal phage detected with anti-M13-HRP
# Method: as §1
row,Binder,"Anti-PSMA Fab (SEQ ID NOs: 19, 20) signal"
1,B31,1.63
2,B32,1.63
3,B33,1.63
4,B34,1.63
5,B35,1.63
6,B36,1.63
7,B37,1.63
8,B38,1.63

# Molecular target: T3, Anti-PSMA Fab (SEQ ID NOs: 19, 20)
# Assay: phage binding ELISA; Fab-coated wells pre-incubated with PSMA antigen as competitor, anti-M13-HRP detection;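 note: clonal phage supernatants screened, with reference wells given blocking buffer only (no PSMA antigen) before phage were added for a brief incubation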
# Method: as §1
row,Binder,Anti-PSMA Fab signal in the presence of PSMA
1,B31,0.0762
2,B32,0.0998
3,B33,0.0839
4,B34,0.0932
5,B35,0.0711
6,B36,0.0922
7,B37,0.0843
8,B38,0.145

# Molecular target: T1, Anti-PSMA Fab (SEQ ID NOs: 19, 20)
# Assay: phage binding ELISA; biotinylated Fab on neutravidin plate, clonal phage detected with anti-M13 HRP
# Method: as §1
row,Binder,"Anti-PSMA Fab (SEQ ID NOs: 19, 20) signal"
1,B1,1.51
2,B2,1.51
3,B3,1.51
4,B4,1.53
5,B5,1.52
6,B6,1.51
7,B7,1.52
8,B8,1.53
9,B9,1.52
10,B10,1.52
11,B11,1.52
12,B12,1.53
13,B13,1.52
14,B14,1.53
15,B15,1.52

# Molecular target: T4, Anti-PSMA Fab (SEQ ID NOs: 19, 20)
# T4 construct: Biotinylated and captured on neutravidin coated plates in the phage ELISA; also called 006 PSMA Fab
# Assay: phage binding ELISA; plate-captured PSMA Fab pre-incubated with PSMA antigen as competitor, anti-M13 HRP detection
# Method: as §1
row,Binder,Anti-PSMA Fab signal in the presence of PSMA
1,B39,0.108
2,B40,0.101
3,B41,0.0683
4,B42,0.0654
5,B43,0.0786
6,B44,0.0841
7,B45,0.079

# Molecular target: T2, Anti-PSMA Fab (SEQ ID NOs: 19, 20)
# Assay: phage binding ELISA; biotinylated PSMA Fab on neutravidin plate, clonal phage supernatant, anti-M13 HRP detection;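 note: wells were preincubated with blocking buffer either containing PSMA antigen or without it before crude phage supernatant was added, briefly incubated, then washed prior to detection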
# Method: as §1
row,Binder,"Anti-PSMA Fab (SEQ ID NOs: 19, 20) signal"
1,B16,1.54
2,B17,1.54
3,B18,1.54
4,B19,1.54
5,B20,1.54
6,B21,1.55
7,B22,1.54
8,B23,1.53
9,B24,1.54
10,B25,1.54
11,B26,1.54
12,B27,1.54
13,B28,1.55
14,B29,1.54
15,B30,1.54

# Molecular target: T4, Anti-PSMA Fab (SEQ ID NOs: 19, 20)
# Assay: phage binding ELISA; clonal phage on plate-captured biotinylated PSMA Fab, anti-M13 HRP detection
# Method: as §1
row,Binder,"Anti-PSMA Fab (SEQ ID NOs: 19, 20) signal"
1,B39,1.51
2,B40,1.51
3,B41,1.51
4,B42,1.51
5,B43,1.5
6,B44,1.51
7,B45,1.51

# — US20260242478A1 (published 2026)
